The source of these data is patent US20190016812A1.

Positions count from the first letter of the chain named.

The chains are these.
B1: SC113.172 (antibody, V domains shown)
VH: QGHLQQSGAELMKPGASVKISCKATGYTFSSYWIEWVKQRPGHGLEWIGEILPGSGSTHYNEKFKGKATFTADTSSNTAYMQLISLTSEDSAVYYCARRDAMDYWGQGTSVTVSS
VL: DIVMTQSPSSLTVTPGEKVTMSCKSSQSLLTSGNQKNYLTWYQQQPGQPPKLLIYWASTRESGVPDRFTGSGSGTDFTLTISSVQAEDLAVYYCQNDYSYPYTFGGGTKLEIK
B2: SC113.190 (antibody, V domains shown)
VH: QVQLQQPGAELVKPGASVKLSCKASGYTFTTYYMYWVKQRPGQGLEWIGGINPSNGDTDFNEKFKSKATLTVDKSSSTVYMQLSSLTPEDSAVYFCTSAGYTSWFAYWGQGTLVTVSA
VL: QIVLTQSPALMSASPGEKVTMTCSASSSVSYMNWYQQKPRSSPKPWIYLTSHLASGVPARFSGSGSGTSYSLTISSMEAEDAATYYCQQWSSKPPTFGSGTKLEIK
B3: SC113.119 (antibody, V domains shown)
VH: QVQLQQSGTELARPGASVRLSCKASGYTFTSYGLSWVKQRTGQGLEWIGEIFPGSGNSNYNENFKGKATLTADKSSSTAYMQVSSLSSEDSVVYFCARGGFDFWGQGTSLTVSS
VL: DIQMTQSPSSLSASLGERVSLTCRASQEITGYLSWLQQKPDGTIKRLIYAASTLDSGVPKRFSGSRSGSDYSLTISSLESEDFADYYCLQYARYPPTFGGGTKLEIK
B4: SC113.118 (antibody, V domains shown)
VH: B3 VH with R19K, V83L, S87T, E89D, F103Y, S109T
VL: B3 VL with T30S, Y32F
B5: SC113.187 (antibody, V domains shown)
VH: QVQLQQSGAELAKPGASVKMSCKASGYTFTSYWMYWVKQRPGQGLEWIGYINPSTGYTEYNQKFKDKATLTADKSSSTAYMQLNSLTSEDSAVYYCARSGYYGSSSLAYWGQGTLVTVSA
VL: NIVLTQSPASLAVSLGQRATISCRASESVDSYGNSFMHWYQQKPGQPPKLLIYLASNLESGVPARFSGSGSRTDFTLTIDPVEADDAATYYCQQNNEDPWTFGGGTKLEIK

human TNFSF9 (R&D Systems; #2295-4L-025/CF) (human), sequence (P41273 71-254 limits assumed): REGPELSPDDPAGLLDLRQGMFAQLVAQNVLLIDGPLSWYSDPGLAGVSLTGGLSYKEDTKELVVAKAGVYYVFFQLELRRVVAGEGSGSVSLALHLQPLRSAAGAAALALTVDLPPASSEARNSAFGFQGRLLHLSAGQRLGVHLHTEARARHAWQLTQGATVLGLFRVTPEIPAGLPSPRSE

The experiment has as its target human TNFSF9 (R&D Systems; #2295-4L-025/CF) (human) (UniProt P41273). In words: MSD ELISA: TNFSF9 + 1 ug/mL antibody, binding to coated TNFRSF9. (An ELISA detects its analyte on a solid surface through an enzyme-linked reagent.)
Regarding B1, the % inhibition of ligand receptor interaction was -3%.
As for B2, the figure is 8%; as for B3, -8%; as for B4, 3%.
As for B5, the figure is -2%.
